{
  "source": "patent US20160046943",
  "about": "“Interferon Production Using Short RNA Duplexes” (YALE UNIVERSITY, published 2016)",
  "molecules": {"B1": {"name": "5'pppGC10 (dsRNA)", "RNA 1": "GGCGCGCGCC", "RNA 2": "GGCGCGCGCC", "modifications": "5'-triphosphate"}, "B2": {"name": "5'pppGC12 (dsRNA)", "RNA 1": "GGCGCGCGCGCC", "RNA 2": "GGCGCGCGCGCC", "modifications": "5'-triphosphate"}, "B3": {"name": "GC14 (dsRNA)", "RNA 1": "GCGCGCGCGCGCGC", "RNA 2": "GCGCGCGCGCGCGC", "modifications": "5'-OH"}, "B4": {"name": "GC10 (dsRNA)", "RNA 1": "GCGCGCGCGC", "RNA 2": "GCGCGCGCGC", "modifications": "5'-OH"}, "B5": {"name": "GC18 (dsRNA)", "RNA 1": "GCGCGCGCGCGCGCGCGC", "RNA 2": "GCGCGCGCGCGCGCGCGC", "modifications": "5'-OH"}, "B6": {"name": "GC22 (dsRNA)", "RNA 1": "GCGCGCGCGCGCGCGCGCGCGC", "RNA 2": "GCGCGCGCGCGCGCGCGCGCGC", "modifications": "5'-OH"}, "B7": {"name": "GC8 (dsRNA)", "RNA 1": "GCGCGCGC", "RNA 2": "GCGCGCGC", "modifications": "5'-OH"}, "B8": {"name": "5'pppCM12 (dsRNA)", "RNA 1": "GGACGUACGUCC", "RNA 2": "GGACGUACGUCC", "modifications": "5'-triphosphate"}, "B9": {"name": "5'pppGC22 (dsRNA)", "RNA 1": "GGCGCGCGCGCGCGCGCGCGCC", "RNA 2": "GGCGCGCGCGCGCGCGCGCGCC", "modifications": "5'-triphosphate"}, "B10": {"name": "5'ppp30L (ssRNA)", "RNA": "GGAUCGAUCGAUCGAUCGGCAUCGAUCGGCUUCGGCCGAUCGAUGCCGAUCGAUCGAUCGAUCC", "modifications": "5'-triphosphate"}, "B11": {"name": "GC12 (dsRNA)", "RNA 1": "GCGCGCGCGCGC", "RNA 2": "GCGCGCGCGCGC", "modifications": "5'-OH"}},
  "key": {"[1]": {"biological_target": "T1, RIG-I (full length) (Homo sapiens, UniProt O95786 O95786:1-925)", "T1 sequence": "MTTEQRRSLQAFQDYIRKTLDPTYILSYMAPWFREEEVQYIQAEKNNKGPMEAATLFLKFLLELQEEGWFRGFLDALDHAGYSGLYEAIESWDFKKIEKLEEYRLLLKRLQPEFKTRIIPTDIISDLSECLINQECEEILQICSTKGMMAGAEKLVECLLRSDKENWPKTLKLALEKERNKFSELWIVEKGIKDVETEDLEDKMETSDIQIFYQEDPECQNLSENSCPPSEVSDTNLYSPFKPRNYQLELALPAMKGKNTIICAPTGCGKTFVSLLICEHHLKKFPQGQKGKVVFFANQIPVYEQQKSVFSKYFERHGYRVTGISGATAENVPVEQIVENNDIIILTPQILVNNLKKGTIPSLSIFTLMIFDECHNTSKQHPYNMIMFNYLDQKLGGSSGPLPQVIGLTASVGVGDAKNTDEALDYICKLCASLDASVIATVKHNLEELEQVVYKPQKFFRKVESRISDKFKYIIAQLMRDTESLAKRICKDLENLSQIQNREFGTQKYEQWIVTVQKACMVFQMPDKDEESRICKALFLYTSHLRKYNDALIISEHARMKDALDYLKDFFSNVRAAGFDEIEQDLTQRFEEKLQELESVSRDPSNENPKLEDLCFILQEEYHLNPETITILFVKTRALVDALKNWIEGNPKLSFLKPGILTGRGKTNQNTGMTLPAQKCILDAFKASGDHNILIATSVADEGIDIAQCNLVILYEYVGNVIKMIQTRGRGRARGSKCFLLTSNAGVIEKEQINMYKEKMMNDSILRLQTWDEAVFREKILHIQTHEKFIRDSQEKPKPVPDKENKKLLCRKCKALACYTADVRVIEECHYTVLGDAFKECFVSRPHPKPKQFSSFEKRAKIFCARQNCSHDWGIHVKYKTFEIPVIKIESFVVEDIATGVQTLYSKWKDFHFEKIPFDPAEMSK", "conditions": "Km,RNA per estimated poly I:C strand, ATPase assay at 5 mM ATP"}, "[2]": {"biological_target": "T1, RIG-I (full length)", "design": "K half: unit not given here", "conditions": "5'-OH"}, "[3]": {"biological_target": "T1, RIG-I (full length)", "test": "Km,RNA (apparent binding constant), ATPase assay at 5 mM ATP, 5 nM RIG-I, MOPS pH 7.4, 150 mM KCl; SD 0.20", "conditions": "tags: pET-SUMO (His-SUMO vector, Ni-NTA purified), E. coli Rosetta II(DE3); palindromic blunt duplex", "method": "(§1) ATPase activity of RIG-I was measured with the NADH-coupled ATPase assay adapted from previously described protocols (Luo et al., 2011, Cell 147:409-422). Experiments were set up in 50 μl reaction volumes in 96 well format using Corning clear half-area flat bottom plates (#3695). Each 50 μl reaction contained 10 μl of 5×NADH enzyme buffer (1 mM NADH, 100 U of lactate dehydrogenase/mL, 500 U/mL of pyruvate kinase/mL, and 2.5 mM phosphoenolpyruvate), 5-10 nM of RIG-I, 5 μl of varying amounts of either RNA or ATP, and a remaining volume of 25 mM 3-(N-morpholino)propanesulfonic acid (MOPS) pH 7.4, 150 mM KCl, 2 mM DTT, and 0.1% Triton X-100. The rate of ATP hydrolysis was indirectly determined by monitoring the loss of NADH by reading the absorbance at 340 nm using a Biotek Synergy H1 plate reader.\n(§2) To more precisely define the minimal duplex length for enzymatic activation of RIG-I, the steady-state kinetic parameters for RIG-I activation by RNA hairpins and double-stranded duplexes ranging in size from 8 to 30 base pairs, was measured with and without a 5′triphosphate (RNAs listed in Table 2). […]"}, "[4]": {"biological_target": "T1, RIG-I (full length)", "test": "Km,RNA, ATPase assay at 5 mM ATP; SD 0.20", "conditions": "tags: pET-SUMO (His-SUMO vector, Ni-NTA purified), E. coli Rosetta II(DE3); palindromic blunt duplex", "method": "as §1, §2"}, "[5]": {"biological_target": "T1, RIG-I (full length)", "test": "Km,RNA, ATPase assay at 5 mM ATP; SD 1.3", "conditions": "tags: pET-SUMO (His-SUMO vector, Ni-NTA purified), E. coli Rosetta II(DE3); palindromic blunt duplex", "method": "as §1, §2"}, "[6]": {"biological_target": "T1, RIG-I (full length)", "test": "Km,RNA, ATPase assay at 5 mM ATP; SD 1.5", "conditions": "tags: pET-SUMO (His-SUMO vector, Ni-NTA purified), E. coli Rosetta II(DE3); palindromic blunt duplex", "method": "as §1, §2"}, "[7]": {"biological_target": "T1, RIG-I (full length)", "test": "Km,RNA, ATPase assay at 5 mM ATP; SD 3.4", "conditions": "tags: pET-SUMO (His-SUMO vector, Ni-NTA purified), E. coli Rosetta II(DE3); palindromic blunt duplex", "method": "as §1, §2"}, "[8]": {"biological_target": "T1, RIG-I (full length)", "test": "Km,RNA, ATPase assay at 5 mM ATP; SD 1.1", "conditions": "tags: pET-SUMO (His-SUMO vector, Ni-NTA purified), E. coli Rosetta II(DE3); palindromic blunt duplex", "method": "as §1, §2"}, "[9]": {"biological_target": "T1, RIG-I (full length)", "test": "Km,RNA, ATPase assay at 5 mM ATP; SD 15", "conditions": "tags: pET-SUMO (His-SUMO vector, Ni-NTA purified), E. coli Rosetta II(DE3); palindromic blunt duplex", "method": "as §1, §2"}, "[10]": {"biological_target": "T1, RIG-I (full length)", "test": "Km,RNA, ATPase assay at 5 mM ATP; SD 0.10", "conditions": "tags: pET-SUMO (His-SUMO vector, Ni-NTA purified), E. coli Rosetta II(DE3); palindromic blunt duplex", "method": "as §1, §2"}, "[11]": {"biological_target": "T1, RIG-I (full length)", "test": "Km,RNA, ATPase assay at 5 mM ATP; SD 1.0", "conditions": "tags: pET-SUMO (His-SUMO vector, Ni-NTA purified), E. coli Rosetta II(DE3)", "method": "as §1\nTo more precisely define the minimal duplex length for enzymatic activation of RIG-I, the steady-state kinetic parameters for RIG-I activation by RNA hairpins and double-stranded duplexes ranging in size from 8 to 30 base pairs, was measured with and without a 5′triphosphate (RNAs listed in Table 2). In order to evaluate the respective roles of ATP and RNA in activation of the RIG-I:RNA complex, the Michaelis constant for ATP (K_{m,ATP}) at saturating RNA (500 nM) and the Michaelis constant for RNA (K_{m,RNA}) at saturating ATP (5 mM) was measured for each RNA construct (kcat, K_{m,ATP} and K_{m,RNA} summary in Table 4)."}, "[12]": {"biological_target": "T1, RIG-I (full length)", "test": "Km,RNA, ATPase assay at 5 mM ATP; SD 0.50", "conditions": "tags: pET-SUMO (His-SUMO vector, Ni-NTA purified), E. coli Rosetta II(DE3)", "method": "as §1, §2"}, "[13]": {"biological_target": "T1, RIG-I (full length)", "test": "Km,RNA, ATPase assay at 5 mM ATP; SD 0.40", "conditions": "tags: pET-SUMO (His-SUMO vector, Ni-NTA purified), E. coli Rosetta II(DE3); hairpin, 8 bp, UUCG tetraloop, blunt end", "method": "as §1, §2"}},
  "note": "Read-outs that look alike come from different tables or passages of the source.",
  "data": [
    {"molecule": "poly I:C fraction A1 (~500 bp)", "values": [
      {"measurement": "K half", "setting": "[1]", "result": 20, "unit": "nM"}
    ]},
    {"molecule": "poly I:C fraction A7 (~25 bp)", "values": [
      {"measurement": "K half", "setting": "[1]", "result": 20, "unit": "nM"}
    ]},
    {"molecule": "LMW poly I:C", "values": [
      {"measurement": "activity", "setting": "[2]; ATPase kcat, Km,ATP 690 uM", "result": 4.9, "unit": "s⁻¹"},
      {"measurement": "K half", "setting": "[2]; Km,RNA, ATPase assay at 5 mM ATP, SD 1.1", "result": 2.4}
    ]},
    {"molecule": "B1", "values": [
      {"measurement": "apparent K (half saturation)", "setting": "[3]", "result": 1.16, "unit": "nM"}
    ]},
    {"molecule": "B2", "values": [
      {"measurement": "apparent K (half saturation)", "setting": "[4]", "result": 2.33, "unit": "nM"}
    ]},
    {"molecule": "B3", "values": [
      {"measurement": "apparent K (half saturation)", "setting": "[5]", "result": 23.2, "unit": "nM"}
    ]},
    {"molecule": "B4", "values": [
      {"measurement": "apparent K (half saturation)", "setting": "[6]", "result": 24.4, "unit": "nM"}
    ]},
    {"molecule": "B5", "values": [
      {"measurement": "apparent K (half saturation)", "setting": "[7]", "result": 26.7, "unit": "nM"}
    ]},
    {"molecule": "B6", "values": [
      {"measurement": "apparent K (half saturation)", "setting": "[8]", "result": 27.3, "unit": "nM"}
    ]},
    {"molecule": "B7", "values": [
      {"measurement": "apparent K (half saturation)", "setting": "[9]", "result": 91.4, "unit": "nM"}
    ]},
    {"molecule": "B8", "values": [
      {"measurement": "apparent K (half saturation)", "setting": "[10]", "result": 2.62, "unit": "nM"}
    ]},
    {"molecule": "B9", "values": [
      {"measurement": "apparent K (half saturation)", "setting": "[11]; palindromic blunt duplex, two 5'ppp ends", "result": 3.58, "unit": "nM"}
    ]},
    {"molecule": "GGACGUACGUUUCGACGUACGUCC (ssRNA, 5'-triphosphate)", "note": "[5'ppp10L]", "values": [
      {"measurement": "apparent K (half saturation)", "setting": "[12]; hairpin, 10 bp, UUCG tetraloop, blunt end", "result": 4.46, "unit": "nM"}
    ]},
    {"molecule": "GGCGCGGCUUCGGCCGCGCC (ssRNA, 5'-triphosphate)", "note": "[5'ppp8L]", "values": [
      {"measurement": "apparent K (half saturation)", "setting": "[13]", "result": 5.16, "unit": "nM"}
    ]},
    {"molecule": "GGAUCGAUCGAUCGAUCGGCUUCGGCCGAUCGAUCGAUCGAUCC (ssRNA, 5'-triphosphate)", "note": "[5'ppp20L]", "values": [
      {"measurement": "apparent K (half saturation)", "setting": "[12]", "result": 10.1, "unit": "nM"}
    ]},
    {"molecule": "B10", "values": [
      {"measurement": "apparent K (half saturation)", "setting": "[11]; hairpin, 30 bp, UUCG tetraloop, blunt end", "result": 10.8, "unit": "nM"}
    ]},
    {"molecule": "B11", "values": [
      {"measurement": "apparent K (half saturation)", "setting": "[11]; palindromic blunt duplex", "result": 13.1, "unit": "nM"}
    ]}
  ]
}
